Reference: the supplement of paper PMC9170038

System: MS2 coat protein
Assay: apparent KD of MS2 coat protein; designed switch direction (-1 OFF switch, 1 ON switch): 1; higher = weaker reporter binding
How it was run: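 Normalised cluster fluorescence was curve-fitted, and each design's median over clusters is its apparent KD. Before this, SNAP-549-labelled MS2 coat protein was titrated from 0.7 or 1.5 nM, doubling to 3 µM, over RNA switches transcribed on Illumina chips by stalled E. coli RNA polymerase. Titrations had no input, 200 uM small-molecule ligand, or an oligonucleotide input, and steps lasted 0.8–1.5 h (lowest) to 10–20 min (highest).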

[1] = Eterna round: R95, input ligand: FMN 200 uM
[2] = Eterna round: R95, input ligand: microRNA oligo, concentration not stated
[3] = Eterna round: R95, input ligand: none
[4] = input ligand: microRNA oligo, concentration not stated

Sequence: GGUCCAGCCUGAGCUGGACAAAAGCAUGUACAUGAGGAUCACCCAUGUCAUGUACAAGCUUUUUGCUCGUCAUAAAG [Mat - hsa-mir-208a - 97] (puzzle: Sensor for hsa-mir-208a)
- apparent KD of MS2 coat protein [1]: 228 nM
- apparent KD of MS2 coat protein [2]: 18.2 nM
- apparent KD of MS2 coat protein [3]: 334 nM

Sequence: GGUGCACGGUGACGUGCACGGUAGUGCGUACAUGAGGAUCACCCAUGUCAUGUAGGAGUUACUUGUUCGUCUUGAAC [SENSOR #2] (puzzle: Sensor for hsa-mir-208a)
- apparent KD of MS2 coat protein [1]: 28.7 nM
- apparent KD of MS2 coat protein [2]: 22.8 nM
- apparent KD of MS2 coat protein [3]: 25.4 nM

Sequence: GCUCGAUGAGCUGUUUACAUGAGGAUCACCCAUGUAAAUGGGCAGGAUAUUUACGUGCUUUGUGUAGAGAAGGGCCCAUCGAGC [SameState NG3 #76] (Eterna round: R96, puzzle: Same State NG 3)
- apparent KD of MS2 coat protein (input ligand: FMN 200 uM): 32.4 nM
- apparent KD of MS2 coat protein [4]: 103 nM
- apparent KD of MS2 coat protein (input ligand: none): 235 nM

Sequence: GCUCGCACGAUGACCGACAUGAGGAUCACCCAUGUGUGUCGGUAGGAUAUCUAUAUUAAGGAUUUAGAGAAGGGCCCAGCGAGC [SameState NG3 #20] (Eterna round: R96, puzzle: Same State NG 3)
- apparent KD of MS2 coat protein (input ligand: FMN 200 uM): 68.3 nM
- apparent KD of MS2 coat protein [4]: 68.5 nM
- apparent KD of MS2 coat protein (input ligand: none): 69.3 nM

Sequence: GGCCUCUGUCAAGGAUAUGCUACCGUUUCGGUAGCAGAAGGUGAUCACAUGCGGUUCGCCCAUGUUUAGGCCAACAGGCCCGCC (Eterna round: R96, puzzle: Same State NG 1)
- apparent KD of MS2 coat protein (input ligand: FMN 200 uM): 25.1 nM
- apparent KD of MS2 coat protein [4]: 5.14 nM
- apparent KD of MS2 coat protein (input ligand: none): 6.87 nM

Sequence: UGUUAACAUGAGGAUCACCCAUGUCAAAUGAAUCGAGGAUAUGGAAAGUAAUAAGAUGAACUAGAAGGUGAAGUUG [Altered State 1-19 - Jieux - Same State 1] (puzzle: Same State 1)
- apparent KD of MS2 coat protein [1]: 37.1 nM
- apparent KD of MS2 coat protein [2]: 55.7 nM
- apparent KD of MS2 coat protein [3]: 57.3 nM

Sequence: AAACACAGCAUAACGCCGUGACAUGAGGAUCACCCAUGUACACAGGAUAUCAUGGCAUAACGCCAUGAGAAGGGUGAUCAAGAC [Raorma] (Eterna round: R96, puzzle: Same State NG 3)
- apparent KD of MS2 coat protein (input ligand: FMN 200 uM): 732 nM
- apparent KD of MS2 coat protein [4]: 77 nM
- apparent KD of MS2 coat protein (input ligand: none): 78.8 nM

Sequence: GUCCGGCUGCCACAGGAUAUACGUGGAUCGACAUGAGGAUCACCCAUGUAUAUCCUAAUAAUUGCGUAGAAGGGUGGUCAGCCGG [Dionbe] (Eterna round: R96, puzzle: Same State 2)
- apparent KD of MS2 coat protein [4]: 507 nM

Sequence: GCGGAGACGUCAGGAUAUCCAUGGAAGACACAUGAGGAUCACCCAUGUGGGAGGGAAACCAGGAGGGAGAAGGGACGGAAACGC [ssng2 v2 d] (Eterna round: R96, puzzle: Same State NG 2)
- apparent KD of MS2 coat protein (input ligand: FMN 200 uM): 10 nM
- apparent KD of MS2 coat protein [4]: 9.63 nM
- apparent KD of MS2 coat protein (input ligand: none): 14.1 nM

Sequence: GCUACCAUUGAAGCCAACAUGAGGAUCACCCAUGUAUGUUGGUAGGAUAUCGUUUGCUUUGCAAACGAGAAGGGCUAAGGUAGC [JL SSNG3 1.27] (Eterna round: R96, puzzle: Same State NG 3)
- apparent KD of MS2 coat protein (input ligand: FMN 200 uM): 72.2 nM
- apparent KD of MS2 coat protein [4]: 57.4 nM
- apparent KD of MS2 coat protein (input ligand: none): 77.1 nM

Sequence: GGAGCCAAGGCAGGAUAUUCAUAUUAAUAACACAUGAGGAUCACCCAUGUGGCCAGAAGGCCUUGGGAGAAGGGCCAUGGCUCG [Xeonanis - 13 mod9] (Eterna round: R96, puzzle: Same State NG 2)
- apparent KD of MS2 coat protein (input ligand: FMN 200 uM): 28 nM
- apparent KD of MS2 coat protein [4]: 57.7 nM
- apparent KD of MS2 coat protein (input ligand: none): 95.3 nM

Sequence: AUAAGUUCGAUGCUCGUCUCUCCGUACAAACAUGAGGAUCACCCAUGUGGCCGGGAAGUAGCCCGACCAGUAUGGCC [Tearbeorve] (puzzle: Sensor for hsa-mir-208a)
- apparent KD of MS2 coat protein [1]: 38.6 nM
- apparent KD of MS2 coat protein [2]: 27.1 nM
- apparent KD of MS2 coat protein [3]: 45.2 nM

Sequence: CGUCCGGCCUGAGCUGGACGGAGGCAUGUACAUGAGGAUCACCCAUGUUCAUGUGCAGGCUUUUUGCUCGUCUUGUG [JL-shm-2.07 JL mod] (Eterna round: R96, puzzle: Sensor for hsa-mir-208a)
- apparent KD of MS2 coat protein (input ligand: FMN 200 uM): 62.8 nM
- apparent KD of MS2 coat protein [4]: 10.6 nM
- apparent KD of MS2 coat protein (input ligand: none): 57.8 nM
